Where two headings read alike, the source gives them in different places. Each block holds one substance with its values, some of them ahead of it.
How the values were obtained:
[1] = target: Recombinant Aα221–391 fragment corresponding to the human fibrinogen αC-connector (human); assay: optical trap-based force spectroscopy
[2] = target: Recombinant Aα392–503 fragment corresponding to the N-terminal subdomain of the human fibrinogen αC-domain (human); assay: optical trap-based force spectroscopy
[3] = target: Lys429Cys/Thr463Cys double mutant of the bovine Aα406–483 fragment, first fraction (Fr-1) (bovine); assay: SEC
[4] = target: Lys429Cys/Thr463Cys double mutant of the bovine Aα406–483 fragment, first fraction (Fr-1) (bovine); assay: SEC; remark: listed apart in the source
[5] = target: Lys429Cys/Thr463Cys double mutant of the bovine Aα406–483 fragment, first fraction (Fr-1) (bovine); assay: SEC; remark: listed apart in the source

cumulative binding probability [1]: 46%
rupture force peak [1]: 26 pN
Substance: Recombinant Aα504–610 fragment corresponding to the C-terminal subdomain of the human fibrinogen αC-domain (domain or fragment)

cumulative binding probability [2]: 67%
rupture force peak 1 [2]: 16 pN
rupture force peak 2 [2]: 32 pN
rupture force peak 3 [2]: 48 pN
Substance: Recombinant Aα392–503 fragment corresponding to the N-terminal subdomain of the human fibrinogen αC-domain (domain or fragment)

oligomers (%) [3]: 31.7%
oligomers (%) [4]: 5.9%
oligomers (%) [5]: 12.4%
Substance: Lys429Cys/Thr463Cys double mutant of the bovine Aα406–483 fragment, first fraction (Fr-1) (domain or fragment)

cumulative binding probability [1]: 51%
rupture force peak [1]: 22 pN
Substance: Recombinant Aα392–610 fragment corresponding to the human fibrinogen αC-domain (domain or fragment)
